# Assay results: US20220033441A1 (LEIDOS, published 2022)
# T1: human LAG3 (Human LAG3/FGL1 TR-FRET Binding Assay, BPS Bioscience) (human, UniProt P18627 23-450, limits assumed)
# T1 construct: Kit reagent (BPS Bioscience); construct not described
# T1 sequence (looked up): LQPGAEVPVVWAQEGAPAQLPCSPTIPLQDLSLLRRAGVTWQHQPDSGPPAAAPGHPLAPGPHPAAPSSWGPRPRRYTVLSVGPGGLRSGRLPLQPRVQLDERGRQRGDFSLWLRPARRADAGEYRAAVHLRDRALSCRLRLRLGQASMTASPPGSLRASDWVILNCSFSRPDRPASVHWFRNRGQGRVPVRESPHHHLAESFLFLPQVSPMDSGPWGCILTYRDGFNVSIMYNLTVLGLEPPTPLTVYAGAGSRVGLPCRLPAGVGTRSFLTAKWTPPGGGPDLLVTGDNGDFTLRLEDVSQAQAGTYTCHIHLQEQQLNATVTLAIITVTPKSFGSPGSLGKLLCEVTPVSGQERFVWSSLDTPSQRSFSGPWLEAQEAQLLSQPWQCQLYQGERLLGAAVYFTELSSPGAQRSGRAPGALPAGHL
# T2: Tag1-LAG3 protein (UniProt P18627 23-450, limits assumed)
# T2 construct: Kit reagent (Cisbio); Tag1 is not identified
# T2 sequence (looked up): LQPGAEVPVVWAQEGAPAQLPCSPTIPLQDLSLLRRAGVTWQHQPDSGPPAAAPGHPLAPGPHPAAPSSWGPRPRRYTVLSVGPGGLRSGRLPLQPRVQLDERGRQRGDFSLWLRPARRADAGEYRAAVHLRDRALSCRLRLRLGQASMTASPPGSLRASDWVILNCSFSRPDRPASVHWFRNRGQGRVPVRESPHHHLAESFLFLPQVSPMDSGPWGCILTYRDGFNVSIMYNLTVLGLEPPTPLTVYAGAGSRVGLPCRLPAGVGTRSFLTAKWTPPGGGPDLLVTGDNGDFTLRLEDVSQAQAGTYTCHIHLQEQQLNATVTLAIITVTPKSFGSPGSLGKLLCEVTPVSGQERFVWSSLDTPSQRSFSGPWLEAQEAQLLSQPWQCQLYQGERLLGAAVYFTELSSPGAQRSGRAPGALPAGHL
# B1: Peptide LG56 (peptide)
# peptide: HIQNWSYWLNQDMMNQQVWKS
# notes: peptide positive control in the LAG3/FGL1 assay
# B2: Peptide LG11 (peptide)
# peptide: SAPWEPLHWPEDWWQGTGEW
# notes: positive peptide control in the LAG3/MHC-II assay
# Target: T1, human LAG3 (Human LAG3/FGL1 TR-FRET …)
# Experiment: TR-FRET competition, inhibition of LAG3:FGL1 binding
# Method: Reaction mixes were incubated 1 hr at RT before development. After development, plate was read in a Tecan M1000 TR-FRET instrument.
row,Binder,IC50
1,B1,14 µM
2,EDKAPWWQLDMEFEFRLDRV (20-mer peptide) [peptide 68],~21 µM
3,EHNREQVLEVMYSFQVNDYF (20-mer peptide) [peptide 154],7.2 µM
4,TVDADGDLYFDMEEGVLVFM (20-mer peptide) [peptide 41],9.2 µM
5,ITMWGYDTDEDDNLVIYLTD (20-mer peptide) [peptide 6],2.6 µM
6,VFRMDWDEKEVRLYADDILL (20-mer peptide) [peptide 146],7.2 µM
7,RTDRYTLSYIWTSDEWMLFD (20-mer peptide) [peptide 115],9.1 µM
8,AEFDHFDVGQTLDIASWDSY (20-mer peptide) [peptide 69],3.3 µM

# Target: T2, Tag1-LAG3 protein
# Experiment: HTRF (TR-FRET) competition, inhibition of LAG3:MHC-II binding
# Method: Anti-Tag1-Tb and anti-Tag2-XL665 antibodies were added and incubated for one hour, then simultaneous measurement of both […] cryptate and 665 nm acceptor emissions were read.
row,Binder,IC50
1,QGSTSGWGFGAMYELTYDVY (20-mer peptide) [peptide 16],0.22 µM
2,GGVAIFLALFGGMVSSWEWD (20-mer peptide) [peptide 141],6.69 µM
3,B2,18.4 µM
4,RERGGDDFAQDDYYVTIFYR (20-mer peptide) [peptide 11],0.353 µM
5,RVPAPVKEQVQKQYPNAGAI (also called Low Activity Peptide) [Peptide 93],63 µM
6,EDKAPWWQLDMEFEFRLDRV (20-mer peptide) [peptide 68],2.94 µM
7,LAGHYHYLTAGSQDIYEYND (20-mer peptide) [peptide 62],0.308 µM
8,SLPYSNIYIELDSGYWNSES (20-mer peptide) [peptide 155],0.13 µM
9,VFRMDWDEKEVRLYADDILL (20-mer peptide) [peptide 146],0.199 µM
10,RTDRYTLSYIWTSDEWMLFD (20-mer peptide) [peptide 115],0.154 µM
